Laboratory results reported in PMC9255381.

Columns and labels:
Experiment in all cases: BLI
[1] = target: vWF-A1 of D. marsupialis (D. marsupialis (Didelphis))
[2] = target: vWF-A1 of Didelphis virginiana (Didelphis virginiana)
[3] = target: vWF-A1 of D. albiventus (D. albiventus (Didelphis))
[4] = target: vWF-A1 of D. aurita (made by site-directed mutagenesis of the D. marsupialis construct) (D. aurita (Didelphis))
[5] = target: vWF-A1 of P. quica (P. quica (Philander))
[6] = target: vWF-A1 of C. minimus (C. minimus (Chironectes))
[7] = target: vWF-A1 of Monodelphis domestica (Monodelphis domestica)
[8] = target: vWF-A1 of Lutreolina crassicaudata (Lutreolina crassicaudata)
[9] = target: vWF-A1 of Monodelphis emiliae (Monodelphis emiliae)

Row | Substance | fold reduction of binding affinity against human vWF [1] [fold] | fold reduction of binding affinity against human vWF [2] [fold] | fold reduction of binding affinity against human vWF [3] [fold] | fold reduction of binding affinity against human vWF [4] [fold] | fold reduction of binding affinity against human vWF [5] [fold] | fold reduction of binding affinity against human vWF [6] [fold] | fold reduction of binding affinity against human vWF [7] [fold] | fold reduction of binding affinity against human vWF [8] [fold] | fold reduction of binding affinity against human vWF [9] [fold]
1 | botrocetin (isoform A) (natural protein) | > 8 | > 8 | – | – | – | – | – | – | –
2 | botrocetin (isoform B) (natural protein) | > 8 | > 8 | > 8 | 8 | > 8 | > 8 | > 8 | > 8 | > 8
